{"source": "paper PMC11148541", "about": "(Cancer Immunology Research, 2024)", "binders": {"B1": {"name": "mouse IL18 (ligand)", "chain": "NFGRLHCTTAVIRNINDQVLFVDKRQPVFEDMTDIDQSASEPQTRLIIYMYKDSEVRGLAVTLSVKDSKMSTLSCKNKIISFEEMDPPENIDDIQSDLIFFQKRVPGHNKMEFESSLYEGHFLACQKEDDAFKLILKKKDENGDKSVMFTLTNLHQS"}}, "biological_target": "T1, mouse IL18BPd-Fc (mouse, UniProt Q9Z0M9 29-193)", "T1 sequence": "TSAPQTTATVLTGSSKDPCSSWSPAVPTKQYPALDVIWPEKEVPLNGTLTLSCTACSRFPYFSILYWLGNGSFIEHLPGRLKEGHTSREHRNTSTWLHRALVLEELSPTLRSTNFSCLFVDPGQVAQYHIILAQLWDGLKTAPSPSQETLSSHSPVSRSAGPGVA", "experiment": "KinExA"}
{"binder": "B1", "values": [{"measurement": "Kd", "result": 3.7, "unit": "pM"}]}
